The values that follow come from patent US8003357B2, “Acidophilic enzymes” (Helmholtz-Zentrum Fuer Infektionsforschung GmbH, priority 2005, dated 2011).

Assay type in all cases: biochemical
The nature of data set [1]: pH and temperature dependence, stability and activity of recombinant acidic enzymes. On the procedure: The acidic enzymes according to the invention were expressed in E. coli using the genomiccoding sequence for the respective enzyme from Ferroplasma acidiphilum, which are described in detail below. For enzymatic conversions, reaction conditions were in 100 mM sodium acetate buffer, 100 mM citrate buffer, 100 mM HEPES buffer for 2 minutes at 30° C., using p-nitrophenol propionate as the substrate for esterase, starch in the case of glycosidases, and HindIII digested λ DNA for ligase.
The activity was assayed using p-nitrophenol propionate as a substrate for esterase, starch for αGluFA and GlyFA1, GlyFA2, and HindIII digested λ DNA for LigFA.
The acidic enzymes according to the invention in vitro show similar elevated reaction temperatures. Substrates were as described for FIG. 2 above.
An overview of catalytic and molecular properties of acidic enzymes that were heterologously expressed in E. coli is given in the following Table III: […]

Data set [2] is described as follows: Fe2+ content (ICP-MS) and Fe2+ dependence of activity, dialysis against EDTA. Conditions: relative to wild type = 100; after dialysis against 1 mM EDTA; 100 mM sodium citrate, 10 mM FeCl2. On the procedure: The UV-VIS absorption spectra of purified acidic enzymes are shown in FIG. 4, wherein the uninterrupted lines refer to Fe^2+ containing enzymes and the interrupted lines refer to enzymes after dialysis against EDTA containing buffer. The λ-max values found at ca. 572 nm correlate with the Fe^2+ content, i.e. disappear after incubation with EDTA or DTT for 24 h. ICP-MS analysis confirmed the presence of 0.82±0.10 mol Fe in EstFA, 0.34±0.08 mol Fe in αGluFA, […] and 0.63±0.09 mol Fe in LigFA.
In FIG. 5, relative activities of acidic enzymes with varying content of Fe^2+ are shown. For analysis, purified enzymes were incubated in 1 mM EDTA. At time intervals indicated, two aliquots were removed, one was used for hydrolysis of respective substrates, the other for ICP-MS analysis of Fe. For relative activities, activities before incubation with EDTA were used as 100% values.
When further investigating the dependence of the acidic enzymes according to the invention on Fe^2+, relative activity for EstFA, αGluFA and LigFA were investigated for their natural Fe^2+ content, e.g. wild-type, which was set to 100%, in comparison to the activity after dialysis against a 1 mM EDTA containing buffer.

A further data set relates to TOP 2 fragmented DNA. In words: Religation of topoisomerase 2 induced DNA breaks. The settings on record: LigFA pH 4.0 to 2.0; T4 ligase acidic pH values; FIG. 9. As to the method: For a comparison of the religation activities of acidic LigFA to T4 ligase on DNA containing breaks caused by topoisomerase 2 (TOP 2), ligation activities were determined in vitro at various pH values. The results are shown in the non-denaturing agarose gel of FIG. 9.
DNA was incubated with TOP 2 to induce DNA damage. At pH 5.0, TOP 2 caused DNA breaks (lane 2) but not at pH 3.0 (lane 3).

For data set [3], the system named is 5′ phosphorylated oligonucleotides; Sau3A digested λ DNA. In words: DNA ligation using LigFA. The settings on record: 40° C. On the procedure:
For DNA ligation, double-stranded DNA fragments, each comprising a complementary 3′ overhang which were phosphorylated in 5′ can be ligated in a total volume of 20 μL ligation buffer (100 mM Na-citrate, pH 3.0, 10 μM Fe^2+, 0.01-0.1 mM ATP, optionally 0.5 mM dithiothreitol), 0.1-5 micrograms DNA and 1 to 20 nmoles ligase. The reaction conditions are 40° C. for 5 minutes to 2 hours, the reaction can be stopped by the addition of stop buffer 98% (vol/vol) formamide, 10 mM EDTA, 0.05% bromophenol blue, 0.05% xylene cyanol, 0.2% SDS), followed by heating to 95° C. for 5 minutes or, alternatively, by adding stop/loading buffer (30% sucrose, 150 mM EDTA, 0.15% SDS, 0.03% bromophenol blue), and heating to 90° C. for 2 minutes.
Oligonucleotides were phosphorylated in 5′.
Reactions were carried out in different buffers: HEPES, pH 7.0 (lane 1), HEPES, pH 6.0 (lane 2), sodium acetate, pH 5.0 (lane 3), sodium acetate, pH 4.0 (lane 4), sodium citrate, pH 3.0 to 0.5 (lanes 5 to 9, respectively). For detection of ligation, gel electrophoresis on a 10% denaturing polyacrylamide gel containing 7 M urea in TBE buffer (90 mM Tris-borate, 2.5 mM EDTA), staining with ethidium bromide. A densitometric reproduction of the gel region containing 60 base fragments is represented in FIG. 7. […]

B1: LigFA: DNA ligase obtainable from Ferroplasma acidiphilum, 595 amino acids, Seq. ID No. 3, Fe2+ dependent (protein, listed as Ferroplasma acidiphilum)
chain: MHLMNMVDPDFNSLIELSKSAGDMTKIEPAMLRNFLDESSLSSRGAPVEIKEIKDYKIKLDGRTLNARMYDDNNAKSAILYYHGGGFLFGNIETYDNYCRFLAKESGVKIISIEYRLAPEHKFPDAFNDAYDSFHYIAKKKKDFGIEGRIGVAGDSAGANLAAALCLKCRDGKTEMPAVQVLFYPSLAPDNFSRSFIEYSDNYVLTGKMIRYFGNMYSKNMQDLINPYFSPLVADDFSNLPPAIMVTNEYDPLRDPEETYVKKLREAGVRAVGIRGIGMIHGSATDFEVSDGARNIVKMVARIIPDYL
modifications: CDS (1)..(927) est FA
notes: ID No. 3, Fe2+ dependent
On to B1, for which the “enzymatic stability at elevated temperatures” value in data set [1] (FIG. 2, LigFA pH 3.0, EstFA and αGluFA pH 2.0 at 40 and 50° C., GlyFA1 and GlyFA2 pH 4.0 at 40° C.) is reported as “good stability”. Besides, the Optimum temperature in data set [1] (measured at optimum pH) is 40 °C. For the same molecule, the “Optimum pH” value in data set [1] (measured at optimum temperature) is 1.5-3.0. Further, the “activity, +EDTA” value in data set [2] was 0.15%. Moreover, in the data set with TOP 2 fragmented DNA, the “religation of TOP 2 fragmented DNA at acidic pH” value was “clearly demonstrated”. Also, the “ligation of Sau3A digested λ DNA” value in data set [3] (20 nM LigFA, 2 hours) is reported as “demonstrates ligation”. For the same molecule, the “ligation of two oligonucleotides (35 and 25 bases) on a 70 base oligonucleotide” value in data set [3] (20 nM ligFA, 5 minutes) is recorded as “ligation was obtained”.
